Test results: patent US7485460B2, “Enhanced growth of adult stem cells with Dkk-1” (Tulane University Health Sciences Center, priority 2003, dated 2009)

B1: recombinant Dkk-1: Histidine-tagged recombinant human Dkk-1 expressed in E. coli, refolded from inclusion bodies; inhibitor of Wnt signaling (protein)
chain: TLNSVLNSNAIKNLPPPLGGAAGHPGSAVSAAPGILYPGGNKYQTIDNYQPYPCAEDEECGTDEYCASPTRGGDAGVQICLACRKRRKRCMRHAMCCPGNYCKNGICVSSDQNHFRGEIEETITESFGNDHSTLDGYSRRTTLSSKMYHTKGQEGSVCLRSSDCASGLCCARHFWSKICKPVLKEGQVCTKHRRKGSHGLEIFQRCYCGEGLSCRIQKDHHQASNSSRLHTCQRH

Key:
MSCs (RS cells) = test: Binding of biotinylated Dkk-1 peptides to MSCs (streptavidin-biotin fluorescence microscopy); parameters: species or system human; details: for fluorescence of MSCs labeled with peptide: FIGS. 30A-30G correspond to peptides A-G; for binding to early progenitor cells (RS cells): biotin-labeled peptide, streptavidin Alexafluor 594
From the text: FIG. 30, comprising FIGS. 30A-30H, is an image of a set of photomicrographs depicting solid phase binding assays to MSCs using biotinylated peptides. The labeled peptides in FIGS. 30A-30G correspond to peptides A-G in FIG. 29. FIG. 30H is a control.
The peptides were then labeled with biotin for use with a commercially available streptavidin-biotin detection system. The streptavidin was linked to a fluorescent tag (Alexafluor 594, Molecular Probes, Eugene, Oreg.) so as to be easily detected by fluorescence microscopy. MSCs were incubated with one of the peptides and the streptavidin-biotin detection system as indicated by the manufacturer's instructions. Then the MSCs were observed under a fluorescence microscope. All of these methods are well-known in the art and are easily found throughout the literature.

hMSCs [1] = test: Effect of recombinant Dkk-1 on hMSC proliferation (fluorescence assay for nucleic acids); format: cell-based, human
Description: For assay of proliferation, cells were also quantified by fluorescent labeling of nucleic acids (CyQuant dye; Molecular Probes Incorporated; Eugene, Oreg.). hMSCs were plated at 100 cells per cm^2 into 10 cm^2 wells and allowed to grow for 4 days. The cells were washed with PBS and medium was added containing the appropriate concentration of Dkk-1 and FCS. The cells were recovered by trypsinization as described above. Fluorescence analysis was carried out using a microplate fluorescence reader (FLx800; Bio-Tek Instruments Incorporated; Winooski, Vt.) set to 480 nanometers excitation and 520 nanometers emission.
To test the hypothesis that Dkk-1 increased proliferation of hMSCs, its effects on rate of growth were assayed. The hMSCs were plated at a density of 100 cells per cm^2 in 6 well plates (10 per cm^2 per well). After 4 days, when the cells were in early log phase of growth, the conditioned medium was removed and replaced with fresh medium containing either vehicle, 0.1 micrograms per milliliter Dkk-1 or 0.01 micrograms per milliliter Dkk-1.

hMSCs [2] = test: Colony-forming potential of hMSCs with recombinant Dkk-1 (crystal violet); format: cell-based, human
Description: MSCs were plated at about 0.6 cells per cm^2 and incubated in complete medium for 17 days. For direct visualization of colonies, a 5% (w/v) solution of crystal violet in methanol (Sigma Aldrich, St. Louis, Mo.) was added to tissue culture dishes previously washed twice with PBS. After 20 minutes, the plates were washed with distilled water and air-dried. Stained colonies with diameters 2 millimeters or greater were counted.
To test the effect of recombinant Dkk-1 on the colony-forming potential of hMSCs, 100 hMSCs were plated onto a 176 cm2 tissue culture dish and allowed to form colonies in the absence or presence of Dkk-1 in medium supplemented with 10% (v/v) fetal calf serum instead of the optimal concentration of 20%.

beta-catenin [3] = test: beta-catenin levels in hMSCs by western blotting; format: cell-based, human; details: stationary phase hMSCs, 0.1 micrograms per milliliter
Description: For immunoblotting, filters were blocked in PBS containing 0.1% (v/v) Tween 20 (Sigma, St. Louis, Mo.) for 1 hour. For detection of beta-catenin, blots were probed with an anti-beta-catenin monoclonal antibody at a dilution of 1 to 1000 (clone 5H10 Chemicon International; Temecula, Calif.) followed by an anti-mouse peroxidase-conjugated rabbit serum (Sigma Aldrich, St. Louis, Mo.). For detection of Dkk-1, blots were probed in 1 microgram per milliliter of anti Dkk-1 polyclonal antibody (see below) followed by an anti-rabbit peroxidase-conjugated monoclonal antibody (clone RG 96, Sigma Aldrich, St. Louis, Mo.). Positive bands were detected by chemiluminescence in accordance with a previously described procedure (Spees et al. Cell Stress Chaperones, 7:97-106 (2002)).
In further experiments, the effect of recombinant Dkk-1 on beta-catenin levels in hMSCs were investigated.

beta-catenin [4] = test: Cellular distribution of beta-catenin in hMSCs by immunostaining; format: cell-based, human; details: stationary phase hMSCs, 0.1 micrograms per milliliter
Description: hMSCs in tissue culture dishes were fixed with 4% (v/v) Paraformaldehyde (USB Corporation, Cleveland, Ohio) for 10 minutes at 4° C. and washed with PBS (Fisher Lifesciences, Pittsburgh, Pa.). Sections (30 millimeter×60 millimeter) of the dishes containing the adherent cells were excised using a hot scalpel under constant hydration with PBS. The samples were blocked in PBS containing 0.4% (v/v) Triton X-100 (Sigma Aldrich, St. Louis, Mo.) and 5% (v/v) goat serum (Sigma Aldrich). Anti-beta-catenin (described above) was added in a 1:400 dilution to the slides in block solution. An appropriate concentration of mouse IgG1 (Cymbus Biotechnology Chandlers Ford, Hants, UK) was used as an isotype control. The samples were incubated for 16 hours at 4° C. followed by washing in PBS. The samples were then incubated for 1 hour in a 1:800 dilution of Alexa-Fluor 594-congugated secondary antibody (Molecular Probes, Eugene, Oreg.). Isotype controls were acquired from Chemicon and Becton Dickinson Slides were washed and mounted with medium containing DAPI (Vector Laboratories Incorporated; Burlingame, Calif.). Immunofluorescence microscopy and digital imaging was carried out using an upright fluorescent microscope (Eclipse 800, Nikon, Japan). […]

[5] = 100 hMSCs per 176 cm2 dish, 10% FCS, 2.5 weeks

Molecule | fluorescence of MSCs labeled with peptide (MSCs (RS cells)) | binding to early progenitor cells (RS cells) (MSCs (RS cells)) | duration of effect on proliferation (hMSCs [1]; 0.1 micrograms per milliliter) | rate of proliferation at high concentration (hMSCs [1]; 0.5 micrograms per milliliter) | effect on proliferation as cells approached stationary phase (hMSCs [1]; cells approaching stationary phase of growth) | effect on lag phase and proliferation (hMSCs [1]; early log phase hMSCs, fresh medium with 0.1 or 0.01 micrograms per milliliter Dkk-1) | duration of significant effect on proliferation (hMSCs [1]; tenfold less Dkk-1 (0.01 micrograms per milliliter)) | colony size and number at high concentration (hMSCs [2]; 0.5 micrograms per milliliter) | colony number (hMSCs [2]; [5]) | colony size (hMSCs [2]; [5]) | beta-catenin levels (beta-catenin [3]) | cellular distribution of beta-catenin (beta-catenin [4])
LSSKMYHTKGQEGSVCLRSS (Peptide synthesized from Dkk-1 LRP-6 binding domain) [Peptide B] | highly fluorescent | tightly bound |  |  |  |  |  |  |  |  |  | 
sTKHRRKGSHGLEIFQRCYs (STKHRRKGSHGLEIFQRCYS; Peptide synthesized from Dkk-1 LRP-6 binding domain) [Peptide E] | highly fluorescent | tightly bound |  |  |  |  |  |  |  |  |  | 
B1 |  |  | 30 h | failed to increase the rate of proliferation | no significant effect | reduced the lag phase and initially increased proliferation | about 15 hours | reduced both the colony size and number | no significant effect | increased colony size | reduced the levels of beta-catenin | clearance of the cytoplasmic pool of beta-catenin
